Test results published in patent publication US20230312710A1 (Hoffmann-La Roche, published 2023).
Numbering of substitutions follows the chain as printed.

B1: parental humanized anti-CD19 clone 8B8, Fab in bacterial supernatant (Fab, V domains shown)
VH: QVQLVQSGAEVKKPGASVKVSCKASGYTFTDYIMHWVRQAPGQGLEWMGYINPYNDGSKYTEKFQGRVTMTSDTSISTAYMELSRLRSDDTAVYYCARGTYYYGSALFDYWGQGTTVTVSS
VL: DIVMTQTPLSLSVTPGQPASISCKSSQSLENSNGNTYLNWYLQKPGQSPQLLIYRVSKRFSGVPDRFSGSGSGTDFTLKISRVEAEDVGVYYCLQLTHVPYTFGQGTKLEIK
notes: Soluble Fab expressed from the phagemid in bacterial supernatant (Flag-tagged); also called Parental 8B8; CD19 (8B8)
B2: anti-CD19 clone 8B8 in P329GLALA human IgG1 format (antibody, V domains shown)
VH: B1 VH
VL: DIVMTQTPLSLSVTPGQPASISCKSSQSLENSNGNTYLNWYLQKPGQSPQLLIYRVSKRFSGVPDRFSGSGSGTDFTLKISRVEAEDVGVYYCLQLTHVPYTFGQGTKLEIKR
notes: also called Parental 8B8; parental antibody 8B8
B3: anti-CD19 clone 5B08 in P329GLALA human IgG1 format (antibody, V domains shown)
VH: B1 VH with S105P, A106Q
VL: B2 VL with N31T, N33T, T97D, H98S, V99Y, Y101N
notes: also called CD19 (8B8-5B08)
B4: anti-CD19 clone 2B11 in P329GLALA human IgG1 format (antibody, V domains shown)
VH: B1 VH with S105P, A106Q
VL: B2 VL with N31T, N33T, N35T, T97L, H98E, V99D
notes: also called CD19 (8B8-2B11)
B5: anti-CD19 clone 7H07 in P329GLALA human IgG1 format (antibody, V domains shown)
VH: B1 VH with A106E
VL: B2 VL with N31T, N33T, L96A, V99I
notes: also called CD19 (8B8-7H07)
B6: anti-CD19 clone 2B03 in P329GLALA human IgG1 format (antibody, V domains shown)
VH: B1 VH with M34T, S105P, A106D
VL: B2 VL with N31T, N33T
notes: also called CD19 (8B8-2B03)
B7: anti-CD19 clone 5H09 in P329GLALA human IgG1 format (antibody, V domains shown)
VH: B1 VH
VL: B2 VL with N31S, N33T, T97I, H98D, V99Y, Y101V
notes: also called CD19 (8B8-5H09)

Legend:
[1] = target: T1, monomeric human CD19 Fc(kih) fusion protein (human, UniProt P0DOX5 223-449 = IgG part); experiment: SPR ProteOn XPR36, Fab from bacterial supernatant captured by anti-human Fab, monomeric CD19-Fc as analyte
T1 construct: Heterodimeric Fc fusion with a single copy of the CD19 ectodomain; Part of the preparation was biotinylated at the Avi tag; the SPR text speaks of 'purified monomeric CD19-Fc' as analyte without saying whether it was biotinylated; also called monomeric CD19-Fc; human CD19-Fc fusion protein
Description: In order to further characterize the ELISA-positive clones, the off-rate was measured by surface plasmon resonance using a ProteOn XPR36 machine and compared with the parental humanized clone 8B8.
For this experiment, 7000 RU of polyclonal anti-human Fab antibody were immobilized on all 6 channels of a GLM chip by Amine coupling (NaAcetate pH4.5, 25 μl/min, 240 s) (vertical orientation). Each antibody-containing bacterial supernatant was filtered and 2-fold diluted with PBS, and then injected for 360 s at 25 μl/minute to achieve immobilization levels of between 100 and 400 response units (RU) in vertical orientation. Injection of monomeric CD19-Fc: For one-shot kinetics measurements, injection direction was changed to horizontal orientation, three-fold dilution series of purified monomeric CD19-Fc (varying concentration ranges between 150 and 6 nM) were injected simultaneously at 50 μl/min along separate channels 1-4, with association times of 180 s, and dissociation times of 300 s. […] Dissociation rate constants (koff) were calculated using a simple one-to-one Langmuir binding model in ProteOn Manager v3.1 software by simultaneously fitting the sensorgrams. […] Of note, the dissociation rate constants of clones 5A07 and 5B08 could not be determined due to inadequate fitting. […]

[2] = target: T1, monomeric human CD19 Fc(kih) fusion …; experiment: SPR ProteOn XPR36, 25 C, IgG from HEK supernatant captured by anti-human Fab, monomeric CD19-Fc as analyte
Description: The Affinity (KD) of the parental antibody 8B8 as well as it derivatives was measured by SPR using a ProteOn XPR36 instrument (Biorad) at 25° C. 7000 RU of polyclonal anti-human Fab antibody were immobilized on all 6 channels of a GLM chip by Amine coupling (NaAcetate pH4.5, 25 ul/min, 240 s) (vertical orientation). Each antibody-containing HEK supernatant was filtered, diluted with PBST (10 mM phosphate, 150 mM sodium chloride pH 7.4, 0.005% Tween 20) to a concentration of 10 ug/ml, and then injected at a for 360 s at 25 μl/minute to achieve immobilization levels between 500 and 800 response units (RU) in vertical orientation. Injection of monomeric CD19-Fc: For one-shot kinetics measurements, injection direction was changed to horizontal orientation, three-fold dilution series of purified monomeric CD19-Fc (varying concentration ranges between 150 and 6 nM) were injected simultaneously at 50 μl/min along separate channels 1-4, with association times of 180 s, and dissociation times of 300 s. A human IgG Fc fragment (150 nM) was injected in channel 5 as a negative control for specific binding to monomeric CD19-Fc. Buffer (PB ST) was injected along the sixth channel to provide an “in-line” blank for referencing. Regeneration was performed by two pulses of 10 mM glycine pH 1.5 and 50 mM NaOH for 30 s at 90 ul/min (vertical orientation). Association rate constants (kₒₙ) and dissociation rate constants (koff) were calculated using a simple one-to-one Langmuir binding model in ProteOn Manager v3.1 software by simultaneously fitting the association and dissociation sensorgrams. The equilibrium dissociation constant (KD) was calculated as the ratio koff/kₒₙ. The dissociation constant of all affinity-matured clones was improved compared to their parental clone 8B8.

[3] = target: T2, human CD19 on WSU-DLCL2 cells (human, UniProt P15391 20-556); experiment: flow cytometry on CD19+ WSU-DLCL2 cells, PE anti-human IgG F(ab')2 detection
T2 construct: Endogenous CD19 of the B-cell non-Hodgkin lymphoma line WSU-DLCL2; also called CD19+ WSU-DLCL2; human CD19-expressing tumor cells
T2 sequence: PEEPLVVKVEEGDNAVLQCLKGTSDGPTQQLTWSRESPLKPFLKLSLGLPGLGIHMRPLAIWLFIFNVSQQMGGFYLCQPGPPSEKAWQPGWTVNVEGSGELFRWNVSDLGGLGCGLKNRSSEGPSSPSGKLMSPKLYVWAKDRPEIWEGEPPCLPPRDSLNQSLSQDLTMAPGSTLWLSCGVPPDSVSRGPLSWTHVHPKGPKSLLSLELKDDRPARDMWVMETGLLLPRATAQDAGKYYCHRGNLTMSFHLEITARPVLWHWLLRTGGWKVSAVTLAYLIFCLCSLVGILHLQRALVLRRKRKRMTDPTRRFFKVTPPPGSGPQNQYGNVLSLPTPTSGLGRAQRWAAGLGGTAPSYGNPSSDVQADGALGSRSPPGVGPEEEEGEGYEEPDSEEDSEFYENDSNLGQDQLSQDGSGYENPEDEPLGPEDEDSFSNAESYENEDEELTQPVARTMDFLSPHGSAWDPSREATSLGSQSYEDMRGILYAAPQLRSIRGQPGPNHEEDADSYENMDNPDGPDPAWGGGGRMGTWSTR
Description: 0.1×10⁶ tumor cells resuspended in DPBS (Gibco by Life Technologies, Cat. No. 14190 326) were added to each well of a round-bottom suspension cell 96-well plate (greiner bio-one, cellstar, Cat. No. 650185). Cells were washed once with 200 μL DPBS. Cells were resuspended in 100 μL/well of 4° C. cold DPBS buffer containing 1:5000 diluted Fixable Viability Dye eFluor 660 (eBioscience, Cat. No. 65-0864-18) and plates were incubated for 30 minutes at 4° C. Cells were washed once with 200 μL/well 4° C. cold DPBS buffer and resuspended in 50 μL/well of 4° C. cold FACS buffer (DPBS supplied with 2% FBS, 5 mM EDTA pH8 (Amresco, Cat. No. E177) and 7.5 mM Sodium azide (Sigma-Aldrich S2002)) containing the CD19 binders at a series of concentrations, followed by incubation for 1 hour at 4° C. After extensive washing, cells were further stained with 50 μL/well of 4° C. cold FACS buffer containing 5 μg/mL PE-conjugated AffiniPure anti-human IgG F(ab′)2-fragment-specific goat F(ab′)2 fragment (Jackson ImmunoResearch, Cat. No. 109 116 098) for 30 minutes at 4° C. Cells were then washed twice with 200 μL/well 4° C. FACS buffer and cells were fixed in 50 μL/well DPBS containing 1% Formaldehyde (Sigma, HT501320-9.5L). Cells were resuspended in 100 μL/well FACS-buffer and acquired using the FACS LSR II (BD Biosciences). Data was analyzed using FlowJo V10 (FlowJo, LLC) and GraphPad Prism 6.04 (GraphPad Software, Inc).

| Binder | EC50 [3] [nM] | also measured |
| --- | --- | --- |
| B1 | – | koff [1]: 0.000301 s⁻¹ |
| B2 | – | Kd [2]: 2.36 nM; koff [2]: 0.000134 s⁻¹; kon [2]: 56600 M⁻¹ s⁻¹ |
| B3 | 0.014 | – |
| B4 | 0.034 | – |
| B5 | 0.034 | – |
| B6 | 0.041 | – |
| B7 | 0.02 | – |
